Values of other authors in article PMC7593401.

Biological target: C3b (Homo sapiens) (UniProt P01024)
Experiment: SPR

Chain of C3b (Homo sapiens) (P01024 23-667, chain 1 of 2): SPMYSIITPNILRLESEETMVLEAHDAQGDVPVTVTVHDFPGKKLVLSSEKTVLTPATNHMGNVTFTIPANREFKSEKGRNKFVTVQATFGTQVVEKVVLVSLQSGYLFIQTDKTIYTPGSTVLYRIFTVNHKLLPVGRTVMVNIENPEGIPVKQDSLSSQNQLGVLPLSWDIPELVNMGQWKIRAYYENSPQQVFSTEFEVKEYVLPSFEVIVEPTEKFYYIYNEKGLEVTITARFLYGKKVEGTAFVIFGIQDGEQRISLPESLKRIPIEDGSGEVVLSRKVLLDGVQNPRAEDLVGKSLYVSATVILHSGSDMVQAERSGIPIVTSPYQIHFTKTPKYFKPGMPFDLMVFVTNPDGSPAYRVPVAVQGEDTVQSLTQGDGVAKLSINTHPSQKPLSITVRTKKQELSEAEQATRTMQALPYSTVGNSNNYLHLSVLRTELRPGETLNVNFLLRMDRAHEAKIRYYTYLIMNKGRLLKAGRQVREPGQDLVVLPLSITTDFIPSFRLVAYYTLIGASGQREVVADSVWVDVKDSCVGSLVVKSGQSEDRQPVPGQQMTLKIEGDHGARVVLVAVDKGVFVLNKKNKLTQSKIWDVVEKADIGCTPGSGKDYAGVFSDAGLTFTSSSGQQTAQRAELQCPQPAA
Chain of C3b (Homo sapiens) (P01024 749-1663, chain 2 of 2): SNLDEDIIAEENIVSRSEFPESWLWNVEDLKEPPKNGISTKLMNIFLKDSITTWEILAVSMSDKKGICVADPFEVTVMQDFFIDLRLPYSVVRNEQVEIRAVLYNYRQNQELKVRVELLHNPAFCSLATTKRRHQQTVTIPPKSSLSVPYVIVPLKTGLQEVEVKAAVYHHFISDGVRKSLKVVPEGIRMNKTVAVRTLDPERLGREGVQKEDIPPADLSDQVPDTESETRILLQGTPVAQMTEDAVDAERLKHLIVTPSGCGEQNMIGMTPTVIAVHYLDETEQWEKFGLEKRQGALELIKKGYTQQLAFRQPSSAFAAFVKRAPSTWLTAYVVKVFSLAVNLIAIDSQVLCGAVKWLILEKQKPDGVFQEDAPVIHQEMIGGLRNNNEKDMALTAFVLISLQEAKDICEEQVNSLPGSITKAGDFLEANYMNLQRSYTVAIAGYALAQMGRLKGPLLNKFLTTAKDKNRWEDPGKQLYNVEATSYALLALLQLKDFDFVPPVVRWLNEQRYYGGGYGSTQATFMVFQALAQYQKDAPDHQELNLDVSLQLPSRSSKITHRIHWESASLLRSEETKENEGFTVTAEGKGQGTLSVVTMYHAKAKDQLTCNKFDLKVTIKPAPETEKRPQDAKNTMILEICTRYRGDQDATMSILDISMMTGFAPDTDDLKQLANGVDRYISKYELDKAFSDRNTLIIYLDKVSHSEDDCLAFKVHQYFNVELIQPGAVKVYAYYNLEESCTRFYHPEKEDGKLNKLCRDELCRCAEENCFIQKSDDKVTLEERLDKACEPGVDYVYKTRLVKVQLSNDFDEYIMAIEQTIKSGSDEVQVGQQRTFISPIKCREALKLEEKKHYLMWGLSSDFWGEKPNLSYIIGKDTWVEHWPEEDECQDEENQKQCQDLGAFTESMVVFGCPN
Chain of Factor H (P08603 19-1231): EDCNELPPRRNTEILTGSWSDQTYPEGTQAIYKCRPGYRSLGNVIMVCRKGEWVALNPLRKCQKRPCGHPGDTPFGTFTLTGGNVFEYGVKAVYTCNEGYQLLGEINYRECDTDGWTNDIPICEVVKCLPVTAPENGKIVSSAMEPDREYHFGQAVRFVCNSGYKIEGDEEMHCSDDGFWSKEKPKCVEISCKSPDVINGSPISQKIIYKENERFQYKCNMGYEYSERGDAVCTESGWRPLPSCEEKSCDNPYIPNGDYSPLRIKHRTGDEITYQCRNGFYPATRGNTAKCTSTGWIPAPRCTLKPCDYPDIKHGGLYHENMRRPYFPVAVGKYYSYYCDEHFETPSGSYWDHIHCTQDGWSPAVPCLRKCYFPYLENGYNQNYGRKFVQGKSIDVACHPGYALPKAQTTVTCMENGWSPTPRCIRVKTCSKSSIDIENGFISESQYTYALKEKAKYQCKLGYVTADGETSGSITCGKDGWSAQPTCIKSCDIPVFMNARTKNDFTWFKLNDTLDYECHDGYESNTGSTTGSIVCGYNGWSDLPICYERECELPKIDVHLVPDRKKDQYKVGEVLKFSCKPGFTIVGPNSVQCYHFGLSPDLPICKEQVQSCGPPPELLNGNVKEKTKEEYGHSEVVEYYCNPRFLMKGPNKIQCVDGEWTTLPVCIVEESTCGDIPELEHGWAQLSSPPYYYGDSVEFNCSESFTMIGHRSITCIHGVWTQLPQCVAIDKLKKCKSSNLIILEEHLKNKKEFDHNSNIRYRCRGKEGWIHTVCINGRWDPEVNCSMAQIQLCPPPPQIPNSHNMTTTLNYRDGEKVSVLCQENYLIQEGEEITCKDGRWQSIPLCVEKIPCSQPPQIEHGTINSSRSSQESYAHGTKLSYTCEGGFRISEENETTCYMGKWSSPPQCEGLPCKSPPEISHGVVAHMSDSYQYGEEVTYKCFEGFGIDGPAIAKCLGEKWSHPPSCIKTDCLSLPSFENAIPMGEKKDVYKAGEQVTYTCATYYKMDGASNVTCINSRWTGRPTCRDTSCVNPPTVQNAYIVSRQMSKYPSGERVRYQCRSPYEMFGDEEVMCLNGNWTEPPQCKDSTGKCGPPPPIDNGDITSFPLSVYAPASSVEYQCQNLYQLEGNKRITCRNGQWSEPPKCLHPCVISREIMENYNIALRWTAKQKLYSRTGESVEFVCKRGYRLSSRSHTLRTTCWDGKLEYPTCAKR
Chain of FHL-1 (P08603 19-1231): as above

Kd [nM] | Substance
600 | Factor H (from UniProt P08603)
1000 | FHL-1 (from UniProt P08603)
